Test results from article PMC3267895.
Read-outs that look alike come from different tables or passages of the source.

Tests used:
NPH-II [1] = biological target: T1, NPH-II (vaccinia virus, UniProt P12927 1-676); assay: sucrose gradient centrifugation
NPH-II [2] = biological target: T1, NPH-II; assay: sucrose gradient centrifugation; remark: listed apart in the source
NPH-II [3] = biological target: T1, NPH-II; assay: smFRET
NPH-II [4] = biological target: T1, NPH-II; assay: smFRET; remark: listed apart in the source
NPH-II [5] = biological target: T1, NPH-II; assay: smFRET; remark: listed apart in the source
NPH-II [6] = biological target: T1, NPH-II; assay: sucrose gradient centrifugation; remark: listed apart in the source

B1: blunt-end duplex RNA 19 bp (dsRNA)
RNA 1: AGCACCGUAAAGACGCAGC
RNA 2: GCUGCGUCUUUACGGUGCU
binding result (NPH-II [1]): binds

B2: single-stranded RNA 24 nt (overhang) (ssRNA)
RNA: CAGCAUCAAUGACAUCAGCAUCAA
binding result (NPH-II [2]): binds

B3: smFRET bipartite RNA with two extra 3' U on complementary strand (dsRNA)
RNA 1: AGCACCGUAAAGACGCAGCCAGCAUCAAUGACAUCAGCAUCAA
RNA 2: GCUGCGUCUUUACGGUGCUUU
modifications: 3' biotin on strand 2
Kd (NPH-II [3]): 0.91 ± 0.12 nM
Kd (NPH-II [4]): < 0.01 nM
Kd (NPH-II [5]): 20.8 ± 7.5 nM

B4: bipartite RNA, 19 bp duplex with 24 nt 3' overhang (dsRNA)
RNA 1: B3 RNA 1
RNA 2: GCUGCGUCUUUACGGUGCU
binding result (NPH-II [6]): binds
